This test addresses EBV gB重组蛋白 (recombinant EB virus gB protein with C-terminal 6xHis tag) (EB病毒 (Epstein-Barr virus)) (UniProt P0C762). The test can be described thus: BLI, biotinylated gB on SA biosensor, control antibody in solution. On the technique in general: In BLI a coated tip is dipped into the sample, and binding shifts an interference pattern.

pKd: −log10 of the molar value.

What is called pKd is the negative decadic logarithm of the Kd, by convention in mol/L. As for “对照抗体AMMO5 (anti-EBV gB recombinant antibody, clone AMMO5)”, the pKd was 9.52.
